Two molecules from US6761878B2, “Pathological tissue detection and treatment employing targeted benzoindole optical agents” (Mallinckrodt, Inc., priority 2001, dated 2004) can be followed below.

Data set [1] deals with CA20948 rat tissues and organs. Briefly: Fluorescence imaging of ex-vivo tissues and organs from CA20948 tumor bearing rat. It counts as in vivo. The settings on record: 27 hours post administration (FIG. 5). As to the method: Individual organs were removed from the CA20948 rat which was injected with cytate 1 and were imaged.
Data set [2] concerns Dunning R3327-H (prostate) tumor. Briefly: In vivo fluorescence imaging of Dunning R3327-H tumor bearing rats. Set-up: species or system male Lewis rats. The note with it: images at 2 and 30 minutes post administration, 0.5 ml of 0.42 mg/ml i.v. An excerpt:
(§1) A non-invasive in vivo fluorescence imaging apparatus was employed to assess the efficacy of indocyanine green (ICG) in three different rat tumor cell lines of the inventive contrast agents developed for tumor detection in animal models. A LaserMax Inc. laser diode of nominal wavelength 780 nm and nominal power of 40 mW was used. The detector was a Princeton Instruments model RTE/CCD-1317-K/2 CCD camera with a Rodenstock 10 mm F2 lens (stock #542.032.002.20) attached. An 830 nm […] (CVI Laser Corp., part #F10-830-4-2) was mounted in front of the CCD input lens, such that only emitted fluorescent light from the contrast agent was imaged.
(§2) Three tumor cell lines, DSL 6/A (pancreatic), Dunning R3327-H (prostate), and CA20948 (pancreatic), which are rich in somatostatin (SST-2) receptors were induced into male Lewis rats by solid implant technique in the left flank area (Achilefu et al., Invest. Radiology, 2000, pp. 479-485). Palpable masses were detected nine days post implant.
(§3) The animals were anesthetized with xylazine:ketamine:acepromazine (1.5:1.5:0.5^v/v) at 0.8 ml/kg via intramuscular injection. The left flank was shaved to expose the tumor and surrounding surface area. A 21-gauge butterfly needle equipped with a stopcock connected to two syringes containing heparinized saline was placed into the tail vein of the rat. […]

The subject of data set [3] is DSL 6/A (pancreatic) tumor. Briefly: In vivo fluorescence imaging of DSL 6/A tumor bearing rats. The note with it: images at 2 and 30 minutes post administration, 0.5 ml of 0.42 mg/ml i.v. More on the design: species or system male Lewis rats.
Source text: as §1, §2, §3

In data set [4] the test system is CA20948 (pancreatic) tumor, rich in somatostatin (SST-2) receptors. Briefly: In vivo fluorescence imaging of CA20948 tumor bearing rats. More on the design: species or system male Lewis rats.
Source text: as §1, §2, §3

The structures appear in SMILES notation.

Turning to `C[C@@H](O)[C@H](NC(=O)[C@@H]1CSSC[C@H](NC(=O)[C@@H](Cc2ccccc2)NC(=O)CC[N+]2=C(/C=C/C=C/C=C/C=C3/N(CCC(=O)O)c4ccc5ccccc5c4C3(C)C)C(C)(C)c3c2ccc2ccccc32)C(=O)N[C@@H](Cc2ccc(O)cc2)C(=O)N[C@H](Cc2c[nH]c3ccccc23)C(=O)N[C@@H](CCCCN)C(=O)N[C@@H]([C@@H](C)O)C(=O)N1)C(=O)O` [Cytate 1, monooctreotate-bisethylcarboxymethylindocyanine dye], in data set [1] (ex vivo organ), the “uptake of the conjugate in adrenal glands” value is recorded as “High uptake”, the “uptake of the conjugate in heart” value is reported as “Significant lower uptake”, the “uptake of the conjugate in liver” value was “Significant lower uptake” and the “uptake of the conjugate in pancreas” value is reported as “High uptake”. Further, the “uptake of the conjugate in spleen” value in data set [1] (ex vivo organ) was “Significant lower uptake”. In data set [1] (ex vivo tissue), the “uptake of the conjugate in muscle” value was “Significant lower uptake” and the “uptake of the conjugate in tumor tissue” value was “High uptake”.

With `CC1(C)C(/C=C/C=C/C=C/C=C2\N(CCCCS(=O)(=O)O)c3ccc4ccccc4c3C2(C)C)=[N+](CCCCS(=O)(=O)[O-])c2ccc3ccccc3c21` [ICG, indocyanine green], the “perfusion of the agent into the tumor” value was “slow perfusion of the agent into the tumor over time” in data set [2]; “slow perfusion of the agent into the tumor over time” in data set [3]; “only a slight and transient perfusion that was cleared after only 30 minutes post injection” in data set [4] (images at 2 and 30 minutes post administration, 0.5 ml of 0.42 mg/ml i.v.). The “non-specific localization into the tumor line” value in data set [4] (compared to the other two lines) is recorded as “no non-specific localization”.
